Assay: Phosphatase assay (Malachite Green) of purified UppP
Type: biochemical, E. coli
Conditions: 100 μM Fpp as model substrate, 37° C., 0.2% DDM, pH 7.5
Method: UppP activity was determined by the Malachite Green assay using Phosphate Colorimetric Assay Kit purchased from BioVision. The enzymatic assay reaction mixture (200 μl) containing 50 mM Tris-HCl, pH 7.5, 150 mM NaCl, 0.2% DDM, 100 μM substrate (Fpp) and appropriately diluted purified UppP was incubated at 37° C. The reaction was quenched by adding 30 μl of Malachite Green Reagent and then the tubes were incubated for 30 min at room temperature. After incubation, the reaction mixture was transferred to 96-well plates and the released phosphate that reacted with Malachite Green was measured at 650 nm according to the reaction time course. The amounts of released phosphate were quantified relative to a phosphate standard curve.
For testing the phosphatase activity of UppP, assays were performed in the presence of various substrates using Malachite Green assay. Since the intended substrate, Upp, was difficult to synthesize and purify (Ghachi et al. Id.), we used farnesyl pyrophosphate (Fpp) as a model substrate. It was previously reported that another E. coli undecaprenyl pyrophosphate phosphatase, PgpB, which has no sequence homology with UppP, catalyzed the dephosphorylation of Upp with a relatively low efficiency compared to diacylglycerol pyrophosphate and farnesyl pyrophosphate lipid substrates. In our activity assay test, Fpp was a suitable substrate for UppP.

B1: UppP: E. coli integral membrane enzyme undecaprenyl pyrophosphate phosphatase purified from the HmBRI/D94N fusion expression system (protein, UniProt P60932 1-273, looked up)
Undecaprenyl-diphosphatase: MSDMHSLLIAAILGVVEGLTEFLPVSSTGHMIIVGHLLGFEGDTAKTFEVVIQLGSILAVVVMFWRRLFGLIGIHFGRPLQHEGESKGRLTLIHILLGMIPAVVLGLLFHDTIKSLFNPINVMYALVVGGLLLIAAECLKPKEPRAPGLDDMTYRQAFMIGCFQCLALWPGFSRSGATISGGMLMGVSRYAASEFSFLLAVPMMMGATALDLYKSWGFLTSGDIPMFAVGFITAFVVALIAIKTFLQLIKRISFIPFAIYRFIVAAAVYVVFF
  time-dependent phosphatase activity (released phosphate): functional protein capable of releasing free phosphate

From US9067985B2, “Bacteriorhodopsin fusion membrane protein expression system” (Academia Sinica, priority 2012, dated 2015)
